These results are taken from patent US20030023034A1 (published 2003).

The target in the test is T1, cyclophilin B (GenBank Accession No. M60857) (UniProt P23284 34-216, limits assumed).
T1 construct: Yeast two-hybrid fusion; also called CYC-B
Put plainly: yeast matrix mating test (two-hybrid), growth on selective medium. Here is the method: Briefly, cells were grown until mid-to-late log phase on media that selected for the presence of the appropriate plasmids. The two mating strains, alpha and a, were then, diluted in YAPD media, filtered onto nitrocellulose membranes, and incubated at 30 degrees Celsius for 6-8 hours. The cells were then transferred to media selective for the desired diploids, i.e., yeast harboring reporter genes for beta-galactosidase, uracil auxotrophy, and histidine auxotrophy, and expression of the vectors encoding the bait and prey. The mating products were plated on SC (synthetic complete) (Sambrook et al., 1989, A Laboratory Manual, 2nd Ed., Cold Spring Harbor Press, New York) media lacking adenine and lysine (to select for successful mating), leucine and tryptophan (to select for expression of genes encoded by both plasmids), and uracil and histidine (to select for protein interactions). This medium is herein referred to as SCS medium, for SC Selective medium.
To test for the specificity of p27(Kip1):FKBP-12 interaction, two general tests were first performed. In the first instance, YULH cells expressing FKBP-12 were created and plated on SC (synthetic complete) −Ura plates, grown for 1-2 days, and examined for growth. […]

T1 sequence (P23284 34-216 limits assumed, one chain of several): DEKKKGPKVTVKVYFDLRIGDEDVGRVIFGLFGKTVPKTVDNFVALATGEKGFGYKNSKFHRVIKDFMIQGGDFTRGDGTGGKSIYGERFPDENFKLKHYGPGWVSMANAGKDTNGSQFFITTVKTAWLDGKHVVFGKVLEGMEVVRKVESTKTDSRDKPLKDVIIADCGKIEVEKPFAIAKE

B1: p27(Kip1) (other)
chain: RDLEKHCRDMEEASQRKWNFDFQNHKPLEGKYEWQEVEKGSLPEFYYRPPRPPKGACKVPAQESQDVSGSRPAAPLIGAPANSEDTHLVDPKTDPSDSQTGLAEQCAGIRKRPATDDSSTQNKRANRTEENVSDGSPNAGSVEQTPKKPGLRRRQT
notes: Yeast two-hybrid fusion expressed in yeast; also called p27(Kip1) bait
In the case of B1, the binding result is “no binding”.
